# Measured values reported in patent US12655454B2, “Process for producing formate using oxygen-tolerant enzymes” (GWANGJU INSTITUTE OF SCIENCE AND TECHNOLOGY, priority 2022, dated 2026).
# B1: Strep-Tag II-fused Rhodobacter capsulatus-derived formate dehydrogenase (RcFDH), SEQ ID NO: 6 to SEQ ID NO: 8 (Rhodobacter capsulatus SB 1003) (protein)
# chain 1: MKIWLPCDAAAKACGAEAVLAALRLEAEKRGGALDIARNGSRGMIWLEPLLEVETPAGRIGFGPMTPADVPALFDALESHPKALGLVEEIPFFKRQTRLTFARCGRIEPLSLAQFAAAEGWAGLRKALKMTPAEVVEEVLASGLRGRGGAGFPTGIKWRTVAAAQADQKYIVCNVDEGDSGSFADRMLIEGDPFCLVEGMAIAGHAVGATRGYVYIRSEYPDAIAVMRAAIAMAKPFLAEAGFEMEVRVGAGAYVCGEETSLLNSLEGKRGTVRAKPPLPALKGLFGKPTVVNNLLSLAAVPWIIAHGAKAYESFGMDRSRGTIPLQIGGNVKRGGLFETGFGITLGELVEDICGGTASGRPVKAVQVGGPLGAYHPVSDYHLPFCYEQFAGQGGLVGHAGLVVHDDTADMLKLARFAMEFCAIESCGTCTPCRIGAVRGVEVIDRIAAGDASAMPLLDDLCQTMKLGSLCALGGFTPYPVQSAIRHFPADFPCAREAAE
# chain 2: MKDLIIPPLDWTQDMGTPKREGAPVHLTIDGVEVTVPAGTSVLRAAAEAGISIPKLCATDNVEPVGSCRLCMVEIEGMRGTPTSCTTPVAPGMRVHTQTPQLQKLRRGVMELYISDHPLDCLTCAANGDCELQDMAGAVGLREVRYQAKDTHFARRDATGPNPRYIPKDNSNPYFSYDPAKCIVCMRCVRACEEVQGTFALTVMGRGFDARISPAAPDFLSSDCVSCGACVQACPTATLVEKSVERIGTPERKVVTTCAYCGVGCSFEAHMLGDQLVRMVPWKGGAANRGHSCVKGRFAYGYATHQDRILKPMIRDKITDPWREVNWTEALDFTATRLRALRDSHGADALGVITSSRCTNEETYLVQKLARAVFGTNNTDTCARVCHSPTGYGLKQTFGTSAGTQDFDSVEETDLALVIGANPTDGHPVFASRLRKRLRAGAKLIVVDPRRIDLLNTPHRGEAWHLQLKPGTNVAVMTAMAHVIVTEQIFDKRFIGDRCDWDEWADYAEFVANPEYAPEAVESLTGVPAGLLRQAARAYAAAPNAAIYYGLGVTEHSQGSTTVIAIANLAMMTGNIGRPGVGVNPLRGQNNVQGSCDMGSFPHEFPGYRHVSDDATRGLFERTWGVTLSSEPGLRIPNMLDAAVEGRFKALYVQGEDILQSDPDTRHVSAGLAAMDLVIVHDLFLNETANYAHVFLPGSTFLEKDGTFTNAERRINRVRRVMAPKAGFADWEVTQMLANALGAGWHYTHPSEIMAEIAATTPGFAAVTYEMLDARGSVQWPCNEKAPEGSPIMHVEGFVRGKGRFIRTAYLPTDEKTGPRFPLLLTTGRILSQYNVGAQTRRTENTVWHGEDRLEIHPTDAETRGIRDGDWVRLASRAGETTLRATVTDRVSPGVVYTTFHHPDTQANVVTTDTSDWATNCPEYKVTAVQVAASNGPSDWQQDYAAQAAAARRIEAAE
# Substrate: NC(=O)C1=CN([C@@H]2O[C@H](COP(=O)(O)OP(=O)(O)OC[C@H]3O[C@@H](n4cnc5c(N)ncnc54)[C@H](O)[C@@H]3O)[C@@H](O)[C@H]2O)C=CC1
# Experiment: NADH-dependent CO2 reduction kinetics of RcFDH (Michaelis-Menten)
# Type: biochemical, Rhodobacter capsulatus
# Settings: Kpi buffer pH 7.0, absorbance at 365 nm
# Protocol: To construct the Strep-Tag II-fused Rhodobacter capsulatu-derived formate dehydrogenase (RcFDH) expression plasmid, pTrcHis-RcFDH was used as a template. […] was performed to substitute the hexahistidine-tag for strep tag II. pTrcHis-RcFDH was amplified by PCR with the in-fusion primer (FW: SEQ ID NO: 9, RV: SEQ ID NO: 10). The PCR product was mixed with 5× In-Fusion HD Enzyme Premix to generate pTrcHis-strep-RcFDH. The E. coli MC1061 strain was transformed with pTrcHis-Strep-RcFDH, and R. eutropha HF210 [pGE771] strain was used as the Ralstonia eutropha-derived hydrogenase (ReSH)-expressing strain.
# The enzyme reaction kinetics of RcFDH were measured for NADH-dependent reduction of CO2 to formate in the presence or absence of O2. The sealing cuvette was filled with 900 μL of Kpi buffer containing NADH and sealed; then, 100% CO2 and a mixed gas consisting of 4% O2 and 96 N2 (or 100% N2 for anaerobic conditions) were injected simultaneously for 30 min at 10 mL/min, respectively. RcFDH (2 mL, 2 μM) was purged with 10 mL/min N2 gas bubbling in a 10 mL sealing vial for 30 min to remove O2 from the air. The reaction was initiated by mixing 100 μL of 2 μM RcFDH with a gas-saturated solution in the sealing cuvette. The final concentration of NADH was varied from 0 to 1 mM.
# All measurements were performed in triplicate based on the change in the absorbance at 365 nm in the cuvette, measured using a T60 UV-Vis spectrophotometer (PG Instruments Ltd, Lutterworth, UK). The change in the absorbance over 1 min was plotted using the Michaelis-Menten equation to calculate the kinetic parameters.
# The present inventor investigated the enzymatic activities of ReSH and RcFDH in the presence or absence of O2. The NAD^+-dependent H2 oxidation reaction rate by ReSH was measured, and the Michaelis-Menten curve was fitted to calculate the kinetic parameters using Origin 2022 program (FIG. 3A). […] Similarly, the NADH-dependent CO2 reduction reaction rate by RcFDH was measured, and the Michaelis-Menten curve was fitted to calculate the kinetic parameters (FIG. 3B).
# [1] = other: 0% O2, NADH varied 0 to 1 mM
# [2] = other: 2% O2, NADH varied 0 to 1 mM
protein,measurement,setting,value
B1,Km,[1],166 ± 30 µM
same,kcat,[1],0.703 ± 0.043 s⁻¹
same,Km,[2],141 ± 22 µM
same,kcat,[2],0.699 ± 0.035 s⁻¹
